Here are results for two molecules from patent publication US20220281973A1 (TRUEBINDING, published 2022).

For assay [1], the target named is T1, hLRIG1 Peptide 69 (human).
T1 construct: 20 amino acid peptide of the LRIG1 peptide library
T1 peptide: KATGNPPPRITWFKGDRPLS
As to the kind of experiment: peptide ELISA of Example 2, as told in Example 3. As to the method:
(§1) To identify the epitopes to which LRIG1 antibodies with and without VISTA-LRIG1 blocking activity bound, a library of 20 amino acid peptides representing portions of LRIG1 was produced, and the ability to bind LRIG1 antibodies was evaluated by ELISA. At least 2 ug/ml of hLRIG1 peptide in 50 μl of PBS or 0.1 ug/ml of full-length human LRIG1 protein (R&D Systems) in 100 μl of PBS was added to the wells of a 96-well ELISA plate (Thermo Fisher, 44-2404-21). After incubating the plate at 4° C. overnight, the plate was washed three times with 300 μl of PBST per well. The plate was then blocked for an hour with 200 μl of 2% BSA in PBST per well at room temperature with gentle rocking. Thereafter, the 2% BSA in PBST was removed and 100 μl of 0.1 ug/ml of antibody in 2% BSA in PBST was added to the wells. The plate was incubated for an hour at room temperature with gentle rocking and then washed three times with 300 μl of PBST per well. Afterwards, 100 μl of anti-mouse IgG-HRP (1:4000) (Jackson ImmunoResearch) or anti-rat IgG HRP (1:4000) (Jackson ImmunoResearch) was added to the wells. The plate was incubated for 30 minutes at room temperature with gentle rocking and then washed three times with 300 μl of PBST per well. 100 μl of TMB substrate (Fisher Scientific, 34029) was then added to each well. The reaction was stopped with 50 μl of 1 M HCl (VWR) per well. The plate was read using a plate reader (Molecular Devices) at absorbance of 450 nm, and signal greater than 0.25 OD was considered evidence of peptide binding.

For assay [2], the target named is T2, human LRIG1 extracellular domain fused to a linker-spaced 6-histidine tag, LRIG1-ECD-His (R&D systems, … (human, UniProt Q96JA1 35-794)).
T2 construct: Bought protein; also called human LRIG1-His; hLRIG1-His; not shown: linker-spaced 6-histidine tag
T2 sequence: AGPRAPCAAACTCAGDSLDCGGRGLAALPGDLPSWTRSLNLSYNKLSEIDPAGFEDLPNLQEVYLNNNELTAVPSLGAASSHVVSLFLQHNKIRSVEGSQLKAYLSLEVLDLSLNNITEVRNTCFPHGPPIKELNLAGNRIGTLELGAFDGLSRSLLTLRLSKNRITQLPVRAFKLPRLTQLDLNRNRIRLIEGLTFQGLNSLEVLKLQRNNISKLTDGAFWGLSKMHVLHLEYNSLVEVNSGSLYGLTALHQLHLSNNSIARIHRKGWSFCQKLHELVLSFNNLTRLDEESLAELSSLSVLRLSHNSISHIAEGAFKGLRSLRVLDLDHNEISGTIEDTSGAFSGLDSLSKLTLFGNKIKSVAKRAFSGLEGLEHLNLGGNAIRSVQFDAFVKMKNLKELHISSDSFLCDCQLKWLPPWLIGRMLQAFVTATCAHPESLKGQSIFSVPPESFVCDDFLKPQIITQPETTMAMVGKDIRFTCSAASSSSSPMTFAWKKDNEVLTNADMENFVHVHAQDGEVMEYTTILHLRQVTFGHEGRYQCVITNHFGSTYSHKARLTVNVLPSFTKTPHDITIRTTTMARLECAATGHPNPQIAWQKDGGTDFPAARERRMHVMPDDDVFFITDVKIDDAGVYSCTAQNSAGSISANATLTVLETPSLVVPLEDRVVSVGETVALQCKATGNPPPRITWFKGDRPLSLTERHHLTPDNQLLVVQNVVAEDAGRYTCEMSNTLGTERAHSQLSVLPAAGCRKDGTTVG
The experiment in a line: LRIG1 ECD ELISA-positive hybridoma antibodies tested in blocking ELISA on plate-bound LRIG1-ECD-His. As to the method: Positively scoring wells were evaluated for the ability to block association of LRIG1 and VISTA. To identify LRIG1-targeted antibodies with the ability to block the interaction of LRIG1 and VISTA, purified LRIG1 and VISTA proteins were incubated in the presence of LRIG1-immunization hybridoma supernatants described above, or without antibody, and protein interaction was evaluated by ELISA. Purified human LRIG1 extracellular domain fused to a HIS tag (R&D Systems) was diluted in phosphate buffered saline (PBS) (Corning) to a concentration of 3 μg/ml and 100 μl was added to each well of a 96-well ELISA plate (Thermo Fisher, 44-2404-21). After incubating the plate at 4° C. overnight, the plate was washed three times with 300 μl of PBS with 0.05% TWEEN (VWR) (PBST) per well. The plate was then blocked for an hour with 200 μl of 2% bovine serum albumin (BSA) (Sigma) in PBST per well at room temperature with gentle rocking. Thereafter, the 2% BSA in PBST was removed and 50 μl of hybridoma supernatant diluted to 3.3 ug/mL was added to the wells. The plate was incubated for 10 minutes at room temperature with gentle rocking. Afterwards, 100 ul of 50 nM oligomerized VISTA in 100 ul PBS buffer was added per well. VISTA oligomerization was performed by Klickmer formation. Briefly, 5 nM Klickmer (Immudex) was incubated with 200 nM hVISTA-Fc-Avi-Biotin in PBS and incubated for one hour. The plate was incubated for an hour at room temperature with gentle rocking. Thereafter, the plate was washed three times with 300 μl of PBST per well, and 100 μl of avidin-HRP (1:1000) (Jackson ImmunoResearch) was then added to each well and the plate was incubated at room temperature for 30 minutes with gentle rocking. Thereafter, the plate was washed three times with 300 μl of PBST per well. 100 μl of TMB substrate (Fisher Scientific, 34029) was then added to each well. The reaction was stopped with 50 μl of 1 M HCl (VWR) per well. The plate was read using a spectrophotometer (Molecular Devices) at absorbance of 450 nm. Percent blockade of LRIG1-VISTA interaction was calculated as the fraction of signal obtained in each experimental samples of the no antibody sample less background signal.
A general note: An ELISA detects its analyte on a solid surface through an enzyme-linked reagent.

Assay [3] concerns the target T3, hLRIG1 Peptide 70 (human).
T3 construct: 20 amino acid peptide of the LRIG1 peptide library
T3 peptide: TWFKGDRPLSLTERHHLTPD
As to the kind of experiment: peptide ELISA of Example 2, as told in Example 3. As to the method: as §1

Assay [4] addresses T4, hLRIG1 Peptide 71 (human).
T4 construct: 20 amino acid peptide of the LRIG1 peptide library
T4 peptide: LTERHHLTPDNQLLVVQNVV
The experiment in a line: peptide ELISA of Example 2, as told in Example 3. As to the method: as §1

B1: 802.5G6.2B11 (antibody, V domains shown)
VH: EVQLQQSGAELVRPGASVKLSCTASGFNIKDDYLHWVKQRPEQGLEWIGWIDPEKGDTECASKFQGKATITVDTSSNTAYLQLSSLTSEDTAVYFCTTGSTVWGQGTTLTVSS
VL: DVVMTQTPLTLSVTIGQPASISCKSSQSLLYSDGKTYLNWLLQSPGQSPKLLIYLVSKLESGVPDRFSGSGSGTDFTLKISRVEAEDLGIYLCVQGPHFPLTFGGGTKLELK
notes: Mouse hybridoma monoclonal
As to B1, the binding result in assay [1] and in assay [2] was “binds” each time.

B2: 802.5G6.2B8 (antibody, V domains shown)
VH: EVHLVESGGGLMKPGGSLKLSCAASGFTFSSYAMSWVRQTPEKRLEWVATISDGGSYTYYPDNVKGRFTISRDNAKNNLYLQMSRLKSEDTAMYYCSRAGSTVVNFGYWGQGTTLTVSS
VL: DIVMTQTPLSLPVSLGDQASISCRSSQNIAHSNGNTYLEWYLQKPGQSPQLLIYKVSNRFSGVPDRFSGSGSGTDFTLKISRVEAEDLGVYYCFQGSHVPLTFGAGTKLELK
notes: Mouse hybridoma monoclonal
In the case of B2, the binding result in assay [3], in assay [4] and in assay [2] was “binds” in each case.
